Article PMC6881174
Several values for one entry are separate records, joined by “and”; a condition that tells them apart may be missing. Equal entries are not always repeated.

Target: TRIM5α from African green monkey, L81F (African green monkey)
Experiment: cryo-EM structure

In the case of “TRIM5α from African green monkey, L81F (natural protein)”, the stoichiometry N is reported as 3 and 2.
